Data on two substances can be found in paper PMC7393355, “A FRET-based screening method to detect potential inhibitors of the binding of CNNM3 to PRL2” (Scientific Reports, 2020).

What is called Kd is the concentration at which binding is half-saturated.

The target in one test is PRL3 (Homo sapiens) (UniProt O75365). As to conditions: cited from earlier work.
For test [1], the target named is CNNM3 CBS domain (residues 301-452) with YPet at its C-terminus (UniProt Q8NE01). Description: FRET competition (inhibition) assay. The note with it: CNNM3-YPet 200 nM, CyPet-PRL2 200 nM, pre-incubation 20 min at R.T., control without competitor est. 98%, n = 6, read off a plot.
Chain of CNNM3 CBS domain (residues 301-452) with YPet at its C-terminus (Q8NE01 301-452): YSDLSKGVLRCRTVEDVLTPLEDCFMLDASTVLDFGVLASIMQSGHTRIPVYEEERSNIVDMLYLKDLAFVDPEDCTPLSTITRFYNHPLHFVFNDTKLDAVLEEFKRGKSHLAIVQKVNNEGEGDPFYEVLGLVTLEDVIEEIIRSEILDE

Chain of non-fluorescence protein-tagged PRL2 (Q12974 whole entry, stated change not applied): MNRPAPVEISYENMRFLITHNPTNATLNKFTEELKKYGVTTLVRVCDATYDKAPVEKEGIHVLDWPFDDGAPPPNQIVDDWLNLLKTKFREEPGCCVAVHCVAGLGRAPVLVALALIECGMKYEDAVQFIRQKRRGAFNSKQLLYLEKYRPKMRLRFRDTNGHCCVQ
Chain of PRL3 (Homo sapiens) (O75365 1-170 C104E): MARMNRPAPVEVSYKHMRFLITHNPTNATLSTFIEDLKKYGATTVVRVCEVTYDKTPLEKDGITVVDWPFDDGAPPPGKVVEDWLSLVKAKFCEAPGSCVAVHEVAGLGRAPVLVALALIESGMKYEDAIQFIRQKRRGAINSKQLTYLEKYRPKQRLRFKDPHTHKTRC
Chain of CNNM3 (Q8NE01 whole entry): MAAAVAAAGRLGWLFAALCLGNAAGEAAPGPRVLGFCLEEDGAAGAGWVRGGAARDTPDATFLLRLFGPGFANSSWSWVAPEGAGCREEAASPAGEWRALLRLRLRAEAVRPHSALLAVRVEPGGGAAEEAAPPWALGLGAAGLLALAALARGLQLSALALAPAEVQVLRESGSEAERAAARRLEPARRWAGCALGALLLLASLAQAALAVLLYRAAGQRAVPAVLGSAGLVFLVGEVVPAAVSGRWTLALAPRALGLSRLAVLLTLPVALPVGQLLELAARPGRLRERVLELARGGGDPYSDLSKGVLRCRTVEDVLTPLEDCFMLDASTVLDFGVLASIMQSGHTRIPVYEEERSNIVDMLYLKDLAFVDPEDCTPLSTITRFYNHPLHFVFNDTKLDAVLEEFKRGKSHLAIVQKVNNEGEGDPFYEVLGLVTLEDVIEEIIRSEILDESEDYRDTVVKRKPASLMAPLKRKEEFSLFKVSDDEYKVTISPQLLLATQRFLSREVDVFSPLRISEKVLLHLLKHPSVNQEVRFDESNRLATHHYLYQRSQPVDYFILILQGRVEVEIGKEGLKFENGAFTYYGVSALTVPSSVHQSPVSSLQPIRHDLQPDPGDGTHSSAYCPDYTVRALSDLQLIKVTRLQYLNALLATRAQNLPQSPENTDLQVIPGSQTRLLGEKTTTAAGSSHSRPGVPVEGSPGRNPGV

In the case of CNNM3 (from UniProt Q8NE01), in the test with PRL3 (Homo sapiens), the Kd was 2800 nM. “non-fluorescence protein-tagged PRL2 (from UniProt Q12974-1) C107E”: the response in test [1] (1 µM untagged competitor, parent: est. 15) came to 97%; in test [1] (10 µM untagged competitor, parent: est. 11), 76%.
